Experimental data from patent publication US20050158323A1, “Methods of killing tumor cells by targeting internal antigens exposed on apoptotic tumor cells” (Vaccinex, Inc., priority 2003, published 2005).

What was measured:
[1] = Maximum Tolerated Dose of chemotherapy in xenograft models (Table 6); settings: mouse, in vivo, intravenous; nude mice; MTD confirmed by present inventors
From the text: Because of concerns regarding cumulative dose-limiting bone marrow toxicity when combining chemotherapy and radioimmunotherapy, it is necessary to determine the Maximum Tolerated Dose (MTD) of combination therapy and, where toxicity of the two therapeutic agents is additive, adopt strategies that will permit administration of both toxic agents. MTD is established by regulatory criteria related to the time required for platelet and white cell recovery in peripheral circulation. Such standards are familiar to those skilled in the art. In the case of murine models, an often employed surrogate definition of MTD is the maximum dose that results in an average of less than 20% weight loss or less than 10% mortality. Currently established MTD for the most common chemotherapeutic agents employed in standard clinical protocols or in animal models are shown in Tables 6 to 9, below.

21MT1 tumor cells = assay: Taxol induced apoptosis and C35 exposure, annexin V/PI flow cytometry; assay type: cell-based, human; settings: 0.5 uM, 24 hours
Procedure: 24 hours following treatment with 0.5 uM Taxol™, 21MT1 tumor cells were stained with annexin V-FITC, propidium iodide, and with either 100 ng anti-C35 antibody 1F2 (dark line) or isotype control (grey fill) antibody. Both antibodies were directly conjugated to Alexa-647. Histograms were gated on the cells undergoing apoptosis (annexinV positive/PI negative).
Antibodies were pre-incubated with PAB buffer (FIG. 3A), 100-fold molar excess recombinant C35 protein (FIG. 3B), or 100-fold molar excess β-galactosidase protein (FIG. 3C).

[2] = nude mice; non-toxic dose at indicated schedule; cited from earlier work
[3] = target: T1, C35 on surface membrane of 21MT1 breast tumor cells (Homo sapiens, UniProt Q9BRT3); assay: C35 surface staining of breast tumor cells after radiation induced apoptosis (flow cytometry); assay type: cell-based; settings: 50 ng Alexa 647 conjugated antibody
T1 construct: 21MT1, derived from breast carcinoma, naturally expresses high levels of C35; endogenous in cells; host or cells: 21MT1 breast tumor cells
T1 sequence (Q9BRT3 1-115): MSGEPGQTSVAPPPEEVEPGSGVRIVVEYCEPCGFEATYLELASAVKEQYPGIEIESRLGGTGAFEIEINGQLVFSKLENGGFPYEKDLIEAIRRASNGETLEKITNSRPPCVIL
Procedure: (§1) A line of continuously growing breast tumor cells that express the C35 tumor antigen was either irradiated with 300 Gy or left untreated. After continued in vitro culture for several days to allow apoptosis to develop, cells were harvested, washed and stained with 50 ng of 1F2 monoclonal anti-C35 antibody or a mouse IgG antibody control each conjugated to the fluorescent dye Alexa 647. Following 50 minutes incubation at 25C, cells were stained with Annexin V and propidium iodide (PI) using a standard commercial kit (Pharmingen). Cells were analyzed for staining with Annexin V, propidium iodide and Alexa 647 by flow cytometry employing standard protocols.

[4] = target: T2, C35 on surface membrane of breast tumor cells that express the C35 tumor antigen (Homo sapiens, UniProt Q9BRT3); assay: C35 surface staining of breast tumor cells after mitomycin C induced apoptosis (flow cytometry); assay type: cell-based; settings: 50 ng Alexa 647 conjugated antibody
T2 construct: A line of continuously growing breast tumor cells that express the C35 tumor antigen; endogenous in cells
T2 sequence (Q9BRT3 1-115): T1 sequence (Q9BRT3 1-115)
Procedure: as §1, with “treated” for “irradiated”, “6 ug/ml mitomycin C” for “300 Gy”, “48 hours” for “several days”

[5] = target: T3, recombinant human C35 (rhC35) (Homo sapiens, UniProt Q9BRT3); assay: Epitope localization by Western blot of Lys-C digested rhC35; assay type: binding; settings: Western blot, 1 μg/ml antibody
T3 construct: made in house; host or cells: E. coli
T3 sequence (Q9BRT3 1-52): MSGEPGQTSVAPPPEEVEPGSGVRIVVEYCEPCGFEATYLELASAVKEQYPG
From the text: (§2) To localize the epitope specificity of 1B3 and 1F2 antibodies, recombinant human C35 (rhC35) synthesized with a 6× His tag in E. coli was digested with Lys-C endoproteinase. This enzyme cuts after lysine (K) residues in the protein sequence. […] The full sequence of rhC35, including the amino terminal 6× His tag addition is shown. Amino acid positions are numbered relative to the amino terminal methionine (M) of the native human sequence. Note that digestion at the first and third lysine followed by negatively charged residues is inefficient and some longer combination fragments may be generated. Lys-C endoproteinase was added to purified rhC35 at a […] weight ratio and incubated for 18 hours at 37° C. in 25 mM Tris, pH 8.0. The digest was ethanol precipitated and resolubilized in reducing Tricine sample buffer. After heating 5 minutes at 100° C., samples were separated by electrophoresis on a 16% Tricine gel (Invitrogen). Peptides were transferred to PVDF membranes and the blots depicted in FIG. 10 were either stained with Coomassie blue (lanes 1-3 of both left and right panels) to detect all peptides or processed with one of the following: 1 μg/ml of the murine 1F2 anti-C35 antibody followed by alkaline phosphatase conjugated goat anti-mouse antibody (lane 4 of left panel); 1 μg/ml of the 1B3 anti-C35 immunoglobulin variable regions linked to human constant regions (MAb11) followed by alkaline phosphatase conjugated goat anti-human antibody (lane 5 of left panel); or anti-6× His tag mouse antibody (Amersham) followed by alkaline phosphatase conjugated goat anti-mouse antibody (lane 4 and 5 of right panel). BCIP/NBT substrate was added and developed to detect the secondary reagents. Molecular weight markers are indicated in the flanking lanes of both panels.
(§3) In FIG. 10, the indicated band A migrates at the position of undigested rhC35. Note that band B stains with 1F2 but not MAb11 (1B3) anti-C35 antibody while band C stains with neither 1F2 nor MAb11 (1B3) antibody. Since bands B and C both do stain with anti-6× His tag antibody to the 6× His tag at the amino terminus of rhC35, it may be concluded that both fragments lack C-terminal peptide fragments. […] This epitope is not required for staining with 1F2.

[6] = target: T4, recombinant human C35 (rhC35) (Homo sapiens, UniProt Q9BRT3); assay: as above; assay type: binding; settings: Western blot, 1 μg/ml antibody; remark: listed apart in the source
T4 construct: made in house; host or cells: E. coli
T4 sequence (Q9BRT3 1-104): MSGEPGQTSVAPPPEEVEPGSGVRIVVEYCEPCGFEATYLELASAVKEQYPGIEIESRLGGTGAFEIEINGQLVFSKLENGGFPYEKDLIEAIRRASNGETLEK
From the text: as §2, §3

[7] = target: T5, recombinant human C35 (rhC35) (Homo sapiens, UniProt Q9BRT3); assay: as above; assay type: binding; settings: native C35 sequence numbering; 1 μg/ml antibody
T5 construct: made in house; host or cells: E. coli
T5 sequence (Q9BRT3 1-115): T1 sequence (Q9BRT3 1-115)
From the text: as §2, §3

C35 protein [8] = target: T6, C35 protein (Homo sapiens, UniProt Q9BRT3); assay: ELISA and Western Blot of hybridoma antibodies; assay type: binding; settings: ELISA and Western Blot assays
T6 sequence (Q9BRT3 1-115): T1 sequence (Q9BRT3 1-115)
Procedure: (§4) Hybridoma cell lines IF2.4.1 and 1B3.6.1, specific for C35 polypeptides, were prepared using hybridoma technology. (Kohler et al., Nature 256:495 (1975); Kohler et al., Eur. J. Immunol. 6:511 (1976); Kohler et al., Eur. J. Immunol. 6:292 (1976); Hammerling et al., in: Monoclonal Antibodies and T-Cell Hybridomas, Elsevier, N.Y., pp. 571-681 (1981)). Briefly, hybridoma cell lines were generated using standard PEG fusion to the non-secreting myeloma cell line NS-1 (P3/NS1/1-AG4-1, ATCC #TIB-18) of splenocytes from BALB/c mice immunized with syngeneic BCA34 fibroblast tumor cells transduced to overexpress C35. Following PEG fusion to NS-1, the hybridomas were grown in methylcellulose semi-solid media. Approximately 2 weeks later, hybridoma colonies were isolated into 96 well plates and individual supernatants were tested for reactivity with C35 by ELISA, Western blot, and immunohistochemistry. Positive hybridomas colonies were subcloned and screened for reactivity twice to ensure clonality. Antibodies were isolated from hybridoma supernatants by protein G affinity purification using standard methods. […] In addition, we have developed intracellular staining flow cytometry assays for quantitative analysis using antibodies from hybridoma cell line 1F2 conjugated to Alexa-647 flourochrome. Each of these antibodies is distinct, yet both are specific for C35 protein. […]

[9] = target: T7, C35 positive tumors and cell lines (Homo sapiens, UniProt Q9BRT3); assay: Immunohistochemistry of formalin fixed, paraffin embedded samples; assay type: binding
T7 construct: from tissue
T7 sequence (Q9BRT3 1-115): T1 sequence (Q9BRT3 1-115)
Procedure: as §4

C35 protein [10] = target: T6, C35 protein; assay: Competitive binding ELISA; settings: 1F2 versus 1B3
Procedure: as §4

[11] = untreated live cells (PI negative), Annexin V negative

For `COc1cccc2c1C(=O)c1c(O)c3c(c(O)c1C2=O)C[C@@](O)(C(=O)CO)C[C@@H]3O[C@H]1C[C@H](N)[C@H](O)[C@H](C)O1` [Adriamycin, Doxorubicin], the MTD [1] was 10 mg/kg.

For `CC(=O)O[C@H]1C(=O)[C@@]2(C)[C@H]([C@H](OC(=O)c3ccccc3)[C@]3(O)C[C@H](OC(=O)[C@H](O)[C@@H](NC(=O)c4ccccc4)c4ccccc4)C(C)=C1C3(C)C)[C@]1(OC(C)=O)CO[C@@H]1C[C@@H]2O` [Taxol, paclitaxel], the “induction of apoptosis with exposure of C35 on the cell surface” value (21MT1 tumor cells) is given as “induces apoptosis” and the “Maximum Tolerated Dose” value [2] is given as “No toxicity^2”.

B1: 1F2: mouse monoclonal anti-C35 antibody from hybridoma 1F2, gamma1 isotype, kappa light chain; VH SEQ ID NO:4, VK SEQ ID NO:6 (antibody, listed as Mus sp., V domains shown)
VH: DVQLQESGPGLVKPSQSLSLTCSVTGYSITSGYFWNWIRQFPGNKLEWMGYISYDGSNNSNPSLKNRISFTRDTSKNQFFLKFNSVTTDDSAAYYCTRGTTGFAYWGQGTLVTVSA
VL: QIVLTQSPAIMSASPGEKVTISCSASSSVSYMNWYQQKPGSSPKPWIYHTSNLASGVPARFSGSGSGTSYSLTISSMEAEDAATYYCQQYHSYPPTFGGGTKLEIK
In the case of B1, the “differential staining versus isotype control antibody” value ([3]; irradiated (300 Gy) tumor cells, viable (PI negative), undergoing apoptosis (Annexin V positive)) is reported as “clearly differentially stained”, the “differential staining versus isotype control antibody” value [3, 11] is reported as “absence of differential staining” and the “differential staining versus isotype control antibody” value ([4]; 6 ug/ml mitomycin C, 48 hours, viable (PI negative), undergoing apoptosis (Annexin V positive)) is reported as “clearly differentially stained”. The “differential staining versus isotype control antibody” value [4, 11] was “absence of differential staining”, the “staining of approximately 8 kDa band C (in addition lacks residues 53-104)” value [5] was “does not react” and the “staining of approximately 15 kDa band B (lacks C35 residues 105-115)” value [6] was “stains”. For the same molecule, the epitope specificity [7] was “residues 53-104”, the “binding to recombinant C35 protein” value (C35 protein [8]) was “specifically bind recombinant C35 protein” and the immunohistochemical staining [9] was “specifically stain formalin fixed, paraffin embedded C35 positive tumors and cell lines”. The “epitope comparison by competition” value (C35 protein [10]) was “bind different epitopes of the C35 protein”.
